Values belong to the substance of their own block, whether it stands above or below them.
Legend:
[1] = target: T1, His6-PomZ (Myxococcus xanthus (DK1622?)) (UniProt Q1DEM0); assay: BLI; conditions: 5' biotin-TEG on both strands; BLI: 50 mM HEPES/NaOH pH 7.2, 50 mM KCl, 0.1 mM EDTA, 10% glycerol, 10 mM MgCl2, 1 mM β-mercaptoethanol, 0.05% Tween 20, 1 mM …; 100 nM DNA loaded; assay temp
T1 sequence: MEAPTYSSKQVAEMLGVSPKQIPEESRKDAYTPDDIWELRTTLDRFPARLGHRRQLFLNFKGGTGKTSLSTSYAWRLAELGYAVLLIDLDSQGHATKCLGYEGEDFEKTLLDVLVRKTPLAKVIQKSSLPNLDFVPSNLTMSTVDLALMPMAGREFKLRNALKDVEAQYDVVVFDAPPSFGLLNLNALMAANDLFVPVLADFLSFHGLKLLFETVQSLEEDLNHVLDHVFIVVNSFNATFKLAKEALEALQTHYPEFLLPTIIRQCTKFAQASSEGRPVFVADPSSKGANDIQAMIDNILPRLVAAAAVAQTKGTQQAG

[2] = target: T2, PomY624-682-mCh (gD domain) (Myxococcus xanthus (DK1622?)) (UniProt Q1DEM1); assay: BLI; conditions: 5' biotin-TEG on both strands; BLI: 50 mM HEPES/NaOH pH 7.2, 50 mM KCl, 0.1 mM EDTA, 10% glycerol, 10 mM MgCl2, 1 mM β-mercaptoethanol, 0.05% Tween 20, 1 mM …; 100 nM DNA loaded; assay temp
T2 sequence: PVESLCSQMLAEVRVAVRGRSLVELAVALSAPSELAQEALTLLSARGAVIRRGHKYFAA

[3] = test system: His6-PomZ (Myxococcus xanthus (DK1622?)); assay: BLI; conditions: 1 mM ATP, 10 mM MgCl2; 5' biotin-TEG on both strands; BLI: 50 mM HEPES/NaOH pH 7.2, 50 mM KCl, 0.1 mM EDTA, 10% glycerol, 10 mM MgCl2, 1 mM β-mercaptoethanol, 0.05% Tween 20, 1 mM ATP; 100 nM DNA loaded; assay …
[4] = target: PomZ (Myxococcus xanthus) (UniProt Q1DEM0)

Substance: GGGCCACCAAGCCCACCGCCGGCTCCAAGCGGCGGCGCCTGGAAGGCAAGAAGCGCACCTCCGAAAAAAAGGCCCTGAGAAACAGCAAATCCGGCTGGTGACCCAGGGTCCATCAGGACTCCAGTCACCCTGTCGCCGGACAGTCAGGGTGCGCCTAAAGTTTGCGAGCTCGCAGACGTTGCGAGGTCATCTGCTGCTCGCAGGGACCTCCTCCTGGGAATTTGCC (double strand) [cluster3 promoter PCR fragment]
Kd [1]: 24.3 µM
binding [2]: no binding

Substance: cluster3 promoter PCR fragment
Kd [3]: 24.3 µM

specific His6-PomZ ATPase activity (NADH-coupled assay, 4 µM His6-PomZ, with DNA) with purified Sumo-PomY^496-682-mCh, 2 to 10 µM (ATP h^-1 µM^-1) [4]: 11.6
Substance: His6-Sumo-PomY^496-682-mCh (domain or fragment)

Source: PMC13170346
